Source: publication PMC7469880

Biological target: FIRΔexon2-FLAG (splice variant of FIR lacking exon 2, FLAG-tagged) (human)
Assay: co-IP

Row | amount detected relative to the FIR–FLAG complex (1.0) | Substance
1 | 0.35 | SAP130 (subunit of splicing factor 3b), endogenous in HeLa (from UniProt Q15393 1-1217) (natural protein)
2 | 0.1 | SAP155 (subunit of splicing factor 3b), endogenous in HeLa (from UniProt O75533 1-1304) (natural protein)
